From the DeepSol protein solubility set

assay: soluble on expression in E. coli; label from the status in PepcDB or PDB records

Sequence | soluble on expression in E. coli
MGSDKIHHHHHHMIKIKRGLDLPISGAPEQRIEAARPVRSVALIGFDYHGMKPTMAVQVGDRVKLGQVLFTDKKNPSVSYTAPGAGVVSAIHRGEKRVLQSVVIDLDGDEQLEFARYPADKLATLSAEQVRDNLLQSGLWTALRTRPFSKVPDPESSPSSIFVTAIDTQPLAADPQVVIAEQGEAFQAGLTVLGRLARVFLCKAEGVSLPGEALSGVTAQAFSGPHPAGLPGTHIHFLDPVGAGKSVWNLNYQDVIAIGKLFTTGQLWTERVIALAGPVVEKPRLVRTRLGANLDELAAGQLQPGNNRLISGSVLGGRTAHGAYAYLGRYHLQLSCLKEGDQREFLHYLRAGVEKHSLLNVFVSRLLGGKRFAFTTSTNGSPRAMVPVGNYEAVMPLDILPTQLLRYLIVGDTEMAQKLGALELDEEDLALCSYVCAGKYEYGPILRDNLARIEQEG | not soluble
MKTKQTIAASTLALAMIAGANSAHAEVNDATPQQSTGDRLAEIKQHKQGLDAKLQQHKENVDQTLNELNKVKENVDTKVNELHERKQVADEKINEIKQHKQELDAKLQQDKQIAEDKIAEIKEHKKQVEDKVAEVKEHKQNIDNKVNEIKEHKQTVDEKVNEMKQHKENIDQKVNELKEVKKQVDEKLAELKKAKQTAEDKLAELKENKPNTGNTLEELKKIKSNLDSLSANLELAKQDVKNKLAALQEARQDLINKINEIKQSKQTVSDDLSKKKQDLDIKINDFKHTEKKIDDKLAEIHTTKQNIDNKINEVSQSKQTETKTGTTNANNNARELPNAGSKQSNNMALGMLSVLGGILLVTRNKIKTLFSK | not soluble
MNQTLETGTTTVGITLKDAVIMATERRVTMENFIMHKNGKKLFQIDTYTGMTIAGLVGDAQVLVRYMKAELELYRLQRRVNMPIEAVATLLSNMLNQVKYMPYMVQLLVGGIDTAPHVFSIDAAGGSVEDIYASTGSGSPFVYGVLESQYSEKMTVDEGVDLVIRAISAAKQRDSASGGMIDVAVITRKDGYVQLPTDQIESRIRKLGLILHHHHHH | soluble
SLKINQEEDTVSSEKNKLCDNNNNNNMVHTRHIYNVCELNKCLRENKLIPYNNIYKMKHLYLNILDTFDENILKHVNKAHLFIDSVIQKKKNILIHSMAGISRCSSIILSYVSKKNKKGIEYNFNLLKSKYPFAHPNENFYRQLLLYEKMNYTLDGCTDYHNIYK | not soluble
MGSRENLYFQGLEHHHHHHHMKNVKTLIAAAILSSMSFASFAAVEVQSTPEGQQKVGTISANAGTNLGSLEEQLAQKADEMGAKSFRITSVTGPNTLHGTAVIYK | soluble
MAVDDAQALALFLRDRTGRSSHTLRAYGAELRRLMRWCGTHGFGPFSDLTRQQLLAYRHTLEHGSSGTANTTPPLSEATRTRALAVVASLYGYWYATGYLHANPAAGLSAGSRLEHHHHHH | not soluble
MNLVGIVGTNSERSTNRKLLRFMAEHFAPQAAIEVLEIKDLPAFDEPENKTAPAAVTAFSKKIAAADGVIIATPEYNHTIPAPLGSALEWIAYTSRVLVNKPVMIVGCSLGALGTSRAQAHLRQILDAPELKARVMPGTEFFLGHSEHVLDDDFNLNNPEKVAELEEHFTEFQDFVIVTNQIVKQADTDRKKAFVWEAGELEHHHHHH | soluble
MSLSLGISCFLVKKKSILNKDFESKEKLSSQTFEPEKVEKFLWDIYDKYGFDFTEYRKDSIIRRIKISMLRYCMTNFDEFSHLALTDQDVFEQLFLDFSINTTNFFRDPEVFMFLREKVLLFLDSYSHIRIWCVGCSNGKEPYSLAIILKELGMLHKVQIYATDINPYVIEEAKNGLYSVSTINTDIANYKKSGGSKNFTDYFEVNGNYMKVKDDFKDNILFFQHSVIEKGILNEFQMILCRNVMIYFDIPLQKKVLRHFYNSLDSGGFLVMGKSEGMLLNNGYEYFADYNEKYSVYRRKEGHHHHHH | not soluble
MTIFQFPQDFMWGTATAAYQIEGAYQEDGRGLSIWDTFAHTPGKVFNGDNGNVACDSYHRYEEDIRLMKELGIRTYRFSVSWPRIFPNGDGEVNQEGLDYYHRVVDLLNDNGIEPFCTLYHWDLPQALQDAGGWGNRRTIQAFVQFAETMFREFHGKIQHWLTFNEPWCIAFLSNMLGVHAPGLTNLQTAIDVGHHLLVAHGLSVRRFRELGTSGQIGIAPNVSWAVPYSTSEEDKAACARTISLHSDWFLQPIYQGSYPQFLVDWFAEQGATVPIQDGDMDIIGEPIDMIGINYYSMSVNRFNPEAGFLQSEEINMGLPVTDIGWPVESRGLYEVLHYLQKYGNIDIYITENGACINDEVVNGKVQDDRRISYMQQHLVQVHRTIHDGLHVKGYMAWSLLDNFEWAEGYNMRFGMIHVDFRTQVRTPKESYYWYRNVVSNNWLETRR | soluble
MDLFPVLKELAQKTPSKILLIVLDGVGGLPLEPGGPTELEAAKTPNLDRLAEESALGLLTPVYPGLAPGSGPGHLALFGYDPFRYVVGRGALSALGLGADFREGDVALRGNFATLDPEGKVVDRRAGRPPTEENQRVIAKLKEAIPRIEDVEVLFYTESEHRFLVILRGEGLEDKVTDTDPQKTGLPPLKAKALDEASERTARLVNLLSERIREVLKDEPRMNGALFRGASKKPSFPRMQEVYKLTPAAIASYPMYKGLASLVGMEVLPVEGEGDALEGKLKALKENWGRYDFFYFHVKKTDAMGEDGNFHGKVEKVELFDALLPEILALGPDVLAITGDHSTPALLKAHSWHPVPLLLKAPYLRADEARRFTEREAQRGSLGHLRGVELMPLLLAHAGKLLKYGA | soluble
MSMIETWTAVDQYVSDVLIPKDSTLEEVLQVNAAANLPAHDVSPTQGKFLQLLVQIQGARNILEIGTLGGYSTIWLARGLSSGGRVVTLEASEKHADIARSNIERANLNDRVEVRTGLALDSLQQIENEKYEPFDFIFIDADKQNNPAYFEWALKLSRPGTVIIGDNVVREGEVIDNTSNDPRVQGIRRFYELIAAEPRVSATALQTVGSKGYDGFIMAVVKE | soluble
MGSDKIHHHHHHSNKKTVDPNPVVRDNIIHLSTAIKNVREEMMLSELVDSVSYIPLETNPNCMLGNYQRLTFSPQYIFYSNYCFDWNGQFLFRIGSQGQGACEDIYVHVADIVYLNNHFYGNASKIIEYDDRGKCTGKELSWFTQKTMDTAPVGHLVNQVCFAPAGENLMFYNFPDTVYFINTDYEFVAKRSMMPWGRKGGAPSMSGGDPRFKYTSYYKDTTLFYNFYTDTVFTVTPTSLMPRWVVELDEELRFPTRYLYEDGLLSEAFKCWESGNLENAKMIKLLDHKYMVSGVFETERFVFLSVYECMPFRELRKLPETPPLTAIYNKRTGETFAVKQVVDDLGGMKAFFPSWGAYNEKLLATIWPYKLKEFIEEEQSAGRTVAPQILNLMQRVREDDNPVLIIAHLKK | not soluble
MRVELIYDKRNVGSLANATEIIRAELTKRVHRVFPDAEVNVKAMHANGINTNASKQEKSVLNRLVEEMFDEADEWLNNEF | not soluble
MKTWLTTLILSLSTLGLAHADVATTQQNLKKNFPEIPVSAVNTTPVKGVYEVITEGQIVYTNDDAQYFFVGNLVDPKNQRNLTAERMQQLNKIDVSTLPLNQAIKHVKGNGKRTLYIFSDPDCPYCQRLEKELTAVDNVTIYLFLFPLTTLHPNAETIATQIWCSKNQYQAWQDYLLNHKAPTASQKCSTPIQKNLALGQKLNINGTPTMYLKNGERIAGAMQAGQLNTLLDQAQ | not soluble
MSLNPNYLDFEQPIADLEAKIQELHTASMGPSINVDTEVRALENKLRLRTAQIFRNLSAWQISQLARHPRRPYTLDYISVVCDEFQELAGDRALADDKAIVGGLARIGHRPVMLIGHQKGRDNKERLMRNFGMPKPEGYRKALRLMKLAERFGLPLLTFIDTMGAWPGIDAEERNQSEAIATNLIEMAELKIPVICTVIGEGGSGGALAIGIGDRTLMLEYSTYSVITPEGCASILWKDAAKASDAAEQLNLTARRLKEFGLIDKVIREPIGGAHRNPQQMANRLKAVLLNELEALDKVPLVTLLNQRHKRLRTYGAYENHEGHHHHHH | not soluble
MKYKAVLVDFGNTLVGFKPVFYEKVYQVLKDNGYDLDLRKVFRAYAKAMGMINYPDEDGLEHVDPKDFLYILGIYPSERLVKELKEADIRDGEAFLYDDTLEFLEGLKSNGYKLALVSNASPRVKTLLEKFDLKKYFDALALSYEIKAVKPNPKIFGFALAKVGYPAVHVGDIYELDYIGAKRSYVDPILLDRYDFYPDVRDRVKNLREALQKIEEMNKE | soluble
SLINNLSTHSYWPNRGQLEVQGLTVKYTEAGRAVLNDISFSVDGGQSVGLLGRTGSGKSTLLSALLGLNYTEGEMFIDGVSSSSMPLEAWRKAFGVVPQKVFILTGTFRMNLDPYGRYSDDELWRVAEEVGLKSVIEQFPDKLDFELKDGGSVLSNGHKQLMCLARSILSKARILLLDEPSSYLDPITLQVLRKTLKQSFSGCTVILSEHKVEPLLECDSFLMIEKSSVKSYDSIQKLMNEMSDLKQAISPAD | not soluble
MGSDKIHHHHHHMAAKLFGIMMINVQSIELSIVNLRTLRQVERVRSDVSLGEDIYDQHTIDYDSVEQAAQALSGFVQIMNDYGVKDYHLWGSWSLSSANNADYIQDQLLVRTGLKIDWLSSSQETYLRSVAVAVHFPRFKQMITKPTYLLGINSGSVGISHYDQSNFVFSRSLRLGPVRIAEVLEDLQSSVPNYVEVLDDYISSQIVDFGRFLPGRRDQPSNVVMLGVAPFATLFRQQQSKAGVEELSKADFQALYEDVLNASDQYLMDKYEVDEEDVRLIVPELLLINELLQLTNAEKIWLGNVTVLDGLIIQEAIKLGYKKYNFNDQIVTAAKNIADRYNVEPKHRDLVTKFSLHLFDQLKPLHHLGKRERLLLQVAAIVHDVGSYIDPHQHYLHSDYILQATELMGLTDTEKRMVALISRYHSAQTPSKDIRHFGHLQVEQRLLVSKLSAILRIADALDDGRKQKIDKISVSIRNPRVIITCFAHDDLFLENWVFAQKAEFFKEVFGLTPVIKLRGVR | not soluble
MGSDKIHHHHHHMARANRHYIPGQVWHITHRCHKKEFLLKFARDRRRWLHWLFEAKKRFGLQVLNYAVTSNHVHLLVVDTKPEVVAKSIQLIAGRTAQEFNQRKDRKGAFWEDRYHATAIERNEHLVRCLVYIDLNMVRAGVVTHPAEWEMNGYNEIQNPPDRYAIIDRHSLFDACGFPDYGSFAEQHRKWVEDALKKGMNREGHWTESIAVGSSAFITDTQRKMGCSAKGRKLEEQVDGASFLREDAEPYHAHFTGKSEVLSPENAFFWDDYDVVPVG | not soluble
TESPADSFLKVELELNLKLSNLVFQDPVQYVYNPLVYAWAPHENYVQTYCKSKKEVLFLGMNPGPFGMAQTGVPFGEVNHVRDWLQIEGPVSKPEVEHPKRRIRGFECPQSEVSGARFWSLFKSLCGQPETFFKHCFVHNHCPLIFMNHSGKNLTPTDLPKAQRDTLLEICDEALCQAVRVLGVKLVIGVGRFSEQRARKALMAEGIDVTVKGIMHPSPRNPQANKGWEGIVRGQLLELGVLSLLTG | soluble
MGSDKIHHHHHHMSEVLKRRMRCAVYTRKSTDEGLDQEYNSIDAQRDAGHAYIASQRAEGWIPVADDYDDPAFSGGNMERPALQRMMADIEAGKIDVVVIYKIDRLTRSLADFSKMVEVFERYAVSFVSVTQQFNTTTSMGRLMLNILLSFAQFEREVTGERIRDKISASKRKGMWMGGVPPLGYDVENRRLVPNEREAKLIRHIFQRFVELGSSTALVKELKLDGVTSKAWTTQDGKTRDGRLIDKGHIYKLLSNRTYLGELRHKDQWYQAEHPPIINRELWDSVHAILETNGRVRGNTTRAKVPYLLKGIVFGNDGRALSPWHTTKKNGRRYRYYVPQRDAKEHAGASGLPRLPAAELESAVLDQLRAILRAPNLLGEMLPQAIKLDPTLDEAKITVAMTRLDAIWDQLFPAEQTRIVKLLVEKVIVSPNDLEVRLRANGIERLVLELRPEPVEQQEVARA | not soluble
